{"source": "ChEMBL document CHEMBL6109039", "about": "“Designed and synthesized novel tripeptides targeting diabetes and its related pathologies” (Eur J Med Chem, 2025)", "proteins": {"B1": {"name": "Pancreatic alpha-amylase (Sus scrofa), P00690 (protein)", "chain": "MKLFLLLSAFGFCWAQYAPQTQSGRTSIVHLFEWRWVDIALECERYLGPKGFGGVQVSPPNENIVVTNPSRPWWERYQPVSYKLCTRSGNENEFRDMVTRCNNVGVRIYVDAVINHMCGSGAAAGTGTTCGSYCNPGNREFPAVPYSAWDFNDGKCKTASGGIESYNDPYQVRDCQLVGLLDLALEKDYVRSMIADYLNKLIDIGVAGFRIDASKHMWPGDIKAVLDKLHNLNTNWFPAGSRPFIFQEVIDLGGEAIQSSEYFGNGRVTEFKYGAKLGTVVRKWSGEKMSYLKNWGEGWGFMPSDRALVFVDNHDNQRGHGAGGASILTFWDARLYKVAVGFMLAHPYGFTRVMSSYRWARNFVNGQDVNDWIGPPNNNGVIKEVTINADTTCGNDWVCEHRWRQIRNMVWFRNVVDGQPFANWWANGSNQVAFGRGNRGFIVFNNDDWQLSSTLQTGLPGGTYCDVISGDKVGNSCTGIKVYVSSDGTAQFSISNSAEDPFIAIHAESKL"}}, "key": {"[1]": {"compound": "N=C(N)NCCC[C@H](N)C(=O)N[C@@H](Cc1c[nH]c2ccccc12)C(=O)N[C@@H](Cc1c[nH]c2ccccc12)C(=O)O", "assay": "Inhibition of porcine pancreatic Alpha-amylase using starch as substrate assessed as Km pre-incubated for 20 mins followed by substrate addition and measured after 15 mins by Lineweaver-Burk plot analysis (reference value: 0.657 mM)", "conditions": "Sus scrofa; time 35.0 min"}, "[2]": {"compound": "N=C(N)NCCC[C@H](N)C(=O)N[C@@H](Cc1c[nH]c2ccccc12)C(=O)N[C@@H](Cc1c[nH]c2ccccc12)C(=O)O", "assay": "Inhibition of porcine pancreatic Alpha-amylase using starch as substrate assessed as maximum velocity pre-incubated for 20 mins followed by substrate addition and measured after 15 mins by Lineweaver-Burk plot analysis (reference value: 0.666)", "conditions": "Sus scrofa; time 35.0 min"}}, "data": [{"protein": "B1", "values": [{"measurement": "Km", "setting": "[1]", "result": 704, "unit": "µM"}, {"measurement": "Vmax", "setting": "[2]", "result": 0.574}]}]}
